Consider five molecules from PMC8633023, “Crystal structures of phosphatidyl serine synthase PSS reveal the catalytic mechanism of CDP-DAG alcohol O-phosphatidyl transferases” (Nature Communications, 2021).

Data set [1] addresses T1, MjPSS (phosphatidyl serine synthase, PS synthase) (Methanocaldococcus jannaschii, UniProt Q58609).
T1 construct: gene pssA; tag used for MST labelling), E. coli C41(DE3) membranes, solubilised in decyl maltoside; dimer
Kind of data set: X-ray crystal structure (SeMet protein, […] Å); MST also shows binding. Particulars: open state with CDP-DAG, Ca2+, Mg2+; Ser1 catalytic site, Ser2 judged artefact; in 7POW covalent to CDP-DAG in one protomer.

Data set [2] has as its target T1, MjPSS (phosphatidyl serine synthase, PS synthase). Kind of data set: activity measured as a function of citrate; crystal structure ([…] Å). Particulars: reversible; reversed by more serine, blocks or competes with serine; structural site near Asn109, Lys111, Lys157, called non-specific by authors. Format: biochemical.
Substrate in data set [3]: N[C@@H](CO)C(=O)O
Kind of data set: purified protein. Particulars: co-substrate CDP-DAG, co-purified Mg2+ and Ca2+, 50 mM Tris-HCl pH 7.0, 50 mM NaCl, 0.2% DM, temperature of this assay not given.

Data set [4] concerns the molecule itself. Kind of data set: crystal structure; crystals grown in meso (lipidic cubic / sponge phase, monoolein with 2% (w/w) CDP-DAG), 292 K; two molecules in the asymmetric unit.

Turning to `N[C@@H](CO)C(=O)O` [L-serine], in data set [1], the “X-ray crystal structure (SeMet protein, 1.85 Å); MST also shows binding” value is 7B1L for the open state with CDP-DAG and two serines. Consider `O=C(O)CC(O)(CC(=O)O)C(=O)O` [citrate], for which the inhibition entry in data set [2] is “binding of citrate reversibly inhibits MjPSS, and that the inhibition is reversed by addition of more serine”.

B1: MjPSS (phosphatidyl serine synthase, PS synthase) (Methanocaldococcus jannaschii DSM 2661) (protein)
chain: MFSIRKIITISDYVTMLNIITGLLAILLNSFSLIYLSIIFDSLDGYVARKTGTVSDFGAELDSISDVVSFGVAPAYLLYNNFESNLALISAIIFCLCGALRLARFGILNVKGFIGLPIPAGALLLVGFCQLINSYLINSILAILIGLLMISDIKYPKYPNKIFIYIFAVSLCLAIVGIPHFALMLCLIYAIYGIIKYIRGD
Regarding B1, in data set [3], the Km amounted to 460 ± 120 µM and the kcat was 0.123 ± 0.007 s⁻¹.

B2: Seleno-methionine (SeMet) MjPSS (enzyme, Methanocaldococcus jannaschii)
chain: MFSIRKIITISDYVTMLNIITGLLAILLNSFSLIYLSIIFDSLDGYVARKTGTVSDFGAELDSISDVVSFGVAPAYLLYNNFESNLALISAIIFCLCGALRLARFGILNVKGFIGLPIPAGALLLVGFCQLINSYLINSILAILIGLLMISDIKYPKYPNKIFIYIFAVSLCLAIVGIPHFALMLCLIYAIYGIIKYIRGD
modifications: selenomethionine in place of methionine
notes: phosphatidyl serine synthase (CDP-DAG alcohol O-phosphatidyl transferase, EC 2.7.8.8) of Methanocaldococcus jannaschii; same construct as m1, SeMet substituted; Same construct as m1; also called SeMet-labelled protein; SeMet substituted protein; source: E. coli, M9 minimal medium with SeMet, IPTG-induced; purified as native MjPSS (final SEC on Superdex 200 Increase)
For the molecule B2, the “stoichiometry N” value in data set [4] came to 2.

B3: phosphatidyl serine synthase from Methanocaldococcus jannaschii (native MjPSS) (enzyme)
chain: MFSIRKIITISDYVTMLNIITGLLAILLNSFSLIYLSIIFDSLDGYVARKTGTVSDFGAELDSISDVVSFGVAPAYLLYNNFESNLALISAIIFCLCGALRLARFGILNVKGFIGLPIPAGALLLVGFCQLINSYLINSILAILIGLLMISDIKYPKYPNKIFIYIFAVSLCLAIVGIPHFALMLCLIYAIYGIIKYIRGD
notes: phosphatidyl serine synthase (CDP-DAG alcohol O-phosphatidyl transferase, EC 2.7.8.8) of Methanocaldococcus jannaschii; the vector pSKB2LNB adds an N-terminal His6-Tag and a PreScission site; 400 protein residues are modelled for the two protomers; also called PS synthase; wild-type MjPSS; source: E. coli C41-(DE3), purified from membranes (DM-solubilised, Co2+ chelating Sepharose, size-exclusion …)
In the case of B3, the “stoichiometry N” value in data set [4] amounted to 2.

In general, Km refers to the substrate concentration at which the rate is half of its maximum. As usually defined, the kcat is the maximal rate divided by the concentration of active sites. In general, stoichiometry N refers to the number of molecules, sites or subunits per partner or assembly.
